Measured values published in US20120165503A1 (Merck Sharp & Dohme, published 2012).
*1 amine or outer side, *2 acyl side, *3 side chain or, on linkers, in order; H or OH if unused. Where no end group is shown, it is not given here. Side-chain parts run from the residue outwards. [ ]: non-standard residue; d: D form. The star is where a group is joined. d(γGlu) = O=C(O)[C@@H](CCC(=O)[*:2])N[*:1]; γGlu = O=C(O)[C@H](CCC(=O)[*:2])N[*:1]; Palmitoyl = CCCCCCCCCCCCCCCC(=O)*; Aib = CC(C)(N)C(=O)O

Assays:
human glucagon receptor = human glucagon receptor (human, UniProt P47871 26-477); experiment: cell-based or functional assay
human glucagon receptor, sequence (P47871 26-477): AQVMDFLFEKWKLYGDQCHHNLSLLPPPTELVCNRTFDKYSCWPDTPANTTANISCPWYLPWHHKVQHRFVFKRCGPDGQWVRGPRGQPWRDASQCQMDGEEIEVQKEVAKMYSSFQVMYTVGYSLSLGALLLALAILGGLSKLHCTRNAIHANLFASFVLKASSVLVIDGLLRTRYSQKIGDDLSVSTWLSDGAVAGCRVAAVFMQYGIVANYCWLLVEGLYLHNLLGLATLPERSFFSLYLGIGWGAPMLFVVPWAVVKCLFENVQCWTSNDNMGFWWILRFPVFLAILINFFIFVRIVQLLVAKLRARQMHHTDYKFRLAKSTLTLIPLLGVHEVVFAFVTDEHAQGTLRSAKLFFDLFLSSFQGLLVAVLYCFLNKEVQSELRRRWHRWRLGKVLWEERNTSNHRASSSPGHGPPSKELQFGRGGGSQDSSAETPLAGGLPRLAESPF

human GLP-1 receptor = human GLP-1 receptor (human, UniProt P43220 24-463); experiment: cell-based or functional assay

hGCGR EC50 (human glucagon receptor) | hGLP-1R EC50 (human GLP-1 receptor) | Binder
0.003 nM | 0.034 nM | H[dS]QGTFTSDK([γGlu-γGlu-Palmitoyl])SKYLD[Aib]RRAQDFVQWLMNTE[γGlu]-NH2 (N-terminus assumed; SMILES CCCCCCCCCCCCCCCC(=O)N[C@@H](CCC(=O)N[C@@H](CCC(=O)NCCCC[C@H](NC(=O)[C@H](CC(=O)O)NC(=O)[C@H](CO)NC(=O)[C@@H](NC(=O)[C@H](Cc1ccccc1)NC(=O)[C@@H](NC(=O)CNC(=O)[C@H](CCC(N)=O)NC(=O)[C@@H](CO)NC(=O)[C@@H](N)Cc1c[nH]cn1)[C@@H](C)O)[C@@H](C)O)C(=O)N[C@@H](CO)C(=O)N[C@@H](CCCCN)C(=O)N[C@@H](Cc1ccc(O)cc1)C(=O)N[C@@H](CC(C)C)C(=O)N[C@@H](CC(=O)O)C(=O)NC(C)(C)C(=O)N[C@@H](CCCNC(=N)N)C(=O)N[C@@H](CCCNC(=N)N)C(=O)N[C@@H](C)C(=O)N[C@@H](CCC(N)=O)C(=O)N[C@@H](CC(=O)O)C(=O)N[C@@H](Cc1ccccc1)C(=O)N[C@H](C(=O)N[C@@H](CCC(N)=O)C(=O)N[C@@H](Cc1c[nH]c2ccccc12)C(=O)N[C@@H](CC(C)C)C(=O)N[C@@H](CCSC)C(=O)N[C@@H](CC(N)=O)C(=O)N[C@H](C(=O)N[C@@H](CCC(=O)O)C(=O)N[C@@H](CCC(N)=O)C(=O)O)[C@@H](C)O)C(C)C)C(=O)O)C(=O)O) [MM102]
0.006 nM | 0.023 nM | H[dS]QGTFTSDK([γGlu-γGlu-Palmitoyl])SKYLD[Aib]RRAQDFVQWLMNTE[d(γGlu)]-NH2 (N-terminus assumed; SMILES CCCCCCCCCCCCCCCC(=O)N[C@@H](CCC(=O)N[C@@H](CCC(=O)NCCCC[C@H](NC(=O)[C@H](CC(=O)O)NC(=O)[C@H](CO)NC(=O)[C@@H](NC(=O)[C@H](Cc1ccccc1)NC(=O)[C@@H](NC(=O)CNC(=O)[C@H](CCC(N)=O)NC(=O)[C@@H](CO)NC(=O)[C@@H](N)Cc1c[nH]cn1)[C@@H](C)O)[C@@H](C)O)C(=O)N[C@@H](CO)C(=O)N[C@@H](CCCCN)C(=O)N[C@@H](Cc1ccc(O)cc1)C(=O)N[C@@H](CC(C)C)C(=O)N[C@@H](CC(=O)O)C(=O)NC(C)(C)C(=O)N[C@@H](CCCNC(=N)N)C(=O)N[C@@H](CCCNC(=N)N)C(=O)N[C@@H](C)C(=O)N[C@@H](CCC(N)=O)C(=O)N[C@@H](CC(=O)O)C(=O)N[C@@H](Cc1ccccc1)C(=O)N[C@H](C(=O)N[C@@H](CCC(N)=O)C(=O)N[C@@H](Cc1c[nH]c2ccccc12)C(=O)N[C@@H](CC(C)C)C(=O)N[C@@H](CCSC)C(=O)N[C@@H](CC(N)=O)C(=O)N[C@H](C(=O)N[C@@H](CCC(=O)O)C(=O)N[C@H](CCC(N)=O)C(=O)O)[C@@H](C)O)C(C)C)C(=O)O)C(=O)O) [MM113]
0.005 nM | 0.026 nM | H[dS]QGTFTSDK([γGlu-γGlu-Palmitoyl])SKYLD[Aib]RRAQDFVQWLMNT[dK][γGlu]-NH2 (N-terminus assumed; SMILES CCCCCCCCCCCCCCCC(=O)N[C@@H](CCC(=O)N[C@@H](CCC(=O)NCCCC[C@H](NC(=O)[C@H](CC(=O)O)NC(=O)[C@H](CO)NC(=O)[C@@H](NC(=O)[C@H](Cc1ccccc1)NC(=O)[C@@H](NC(=O)CNC(=O)[C@H](CCC(N)=O)NC(=O)[C@@H](CO)NC(=O)[C@@H](N)Cc1c[nH]cn1)[C@@H](C)O)[C@@H](C)O)C(=O)N[C@@H](CO)C(=O)N[C@@H](CCCCN)C(=O)N[C@@H](Cc1ccc(O)cc1)C(=O)N[C@@H](CC(C)C)C(=O)N[C@@H](CC(=O)O)C(=O)NC(C)(C)C(=O)N[C@@H](CCCNC(=N)N)C(=O)N[C@@H](CCCNC(=N)N)C(=O)N[C@@H](C)C(=O)N[C@@H](CCC(N)=O)C(=O)N[C@@H](CC(=O)O)C(=O)N[C@@H](Cc1ccccc1)C(=O)N[C@H](C(=O)N[C@@H](CCC(N)=O)C(=O)N[C@@H](Cc1c[nH]c2ccccc12)C(=O)N[C@@H](CC(C)C)C(=O)N[C@@H](CCSC)C(=O)N[C@@H](CC(N)=O)C(=O)N[C@H](C(=O)N[C@H](CCCCN)C(=O)N[C@@H](CCC(N)=O)C(=O)O)[C@@H](C)O)C(C)C)C(=O)O)C(=O)O) [MM103]
